# Several values for one entry are separate records, joined by “and”; a condition that tells them apart may be missing. Equal values may be shown once. Read-outs that look alike come from different tables or passages of the source. Bridge positions count the residues as written; N and C are the ends. Square brackets hold non-standard residues; d marks the D form. Trp(1-Me) = Cn1cc(C[C@H](N)C(=O)O)c2ccccc21
# Experiments:
# Experiment in all cases: cell-based or functional assay
# [1] = target: T1, human complement protein C3 (human, UniProt P01024 23-1663)
# T1 sequence (P01024 23-1663 limits assumed): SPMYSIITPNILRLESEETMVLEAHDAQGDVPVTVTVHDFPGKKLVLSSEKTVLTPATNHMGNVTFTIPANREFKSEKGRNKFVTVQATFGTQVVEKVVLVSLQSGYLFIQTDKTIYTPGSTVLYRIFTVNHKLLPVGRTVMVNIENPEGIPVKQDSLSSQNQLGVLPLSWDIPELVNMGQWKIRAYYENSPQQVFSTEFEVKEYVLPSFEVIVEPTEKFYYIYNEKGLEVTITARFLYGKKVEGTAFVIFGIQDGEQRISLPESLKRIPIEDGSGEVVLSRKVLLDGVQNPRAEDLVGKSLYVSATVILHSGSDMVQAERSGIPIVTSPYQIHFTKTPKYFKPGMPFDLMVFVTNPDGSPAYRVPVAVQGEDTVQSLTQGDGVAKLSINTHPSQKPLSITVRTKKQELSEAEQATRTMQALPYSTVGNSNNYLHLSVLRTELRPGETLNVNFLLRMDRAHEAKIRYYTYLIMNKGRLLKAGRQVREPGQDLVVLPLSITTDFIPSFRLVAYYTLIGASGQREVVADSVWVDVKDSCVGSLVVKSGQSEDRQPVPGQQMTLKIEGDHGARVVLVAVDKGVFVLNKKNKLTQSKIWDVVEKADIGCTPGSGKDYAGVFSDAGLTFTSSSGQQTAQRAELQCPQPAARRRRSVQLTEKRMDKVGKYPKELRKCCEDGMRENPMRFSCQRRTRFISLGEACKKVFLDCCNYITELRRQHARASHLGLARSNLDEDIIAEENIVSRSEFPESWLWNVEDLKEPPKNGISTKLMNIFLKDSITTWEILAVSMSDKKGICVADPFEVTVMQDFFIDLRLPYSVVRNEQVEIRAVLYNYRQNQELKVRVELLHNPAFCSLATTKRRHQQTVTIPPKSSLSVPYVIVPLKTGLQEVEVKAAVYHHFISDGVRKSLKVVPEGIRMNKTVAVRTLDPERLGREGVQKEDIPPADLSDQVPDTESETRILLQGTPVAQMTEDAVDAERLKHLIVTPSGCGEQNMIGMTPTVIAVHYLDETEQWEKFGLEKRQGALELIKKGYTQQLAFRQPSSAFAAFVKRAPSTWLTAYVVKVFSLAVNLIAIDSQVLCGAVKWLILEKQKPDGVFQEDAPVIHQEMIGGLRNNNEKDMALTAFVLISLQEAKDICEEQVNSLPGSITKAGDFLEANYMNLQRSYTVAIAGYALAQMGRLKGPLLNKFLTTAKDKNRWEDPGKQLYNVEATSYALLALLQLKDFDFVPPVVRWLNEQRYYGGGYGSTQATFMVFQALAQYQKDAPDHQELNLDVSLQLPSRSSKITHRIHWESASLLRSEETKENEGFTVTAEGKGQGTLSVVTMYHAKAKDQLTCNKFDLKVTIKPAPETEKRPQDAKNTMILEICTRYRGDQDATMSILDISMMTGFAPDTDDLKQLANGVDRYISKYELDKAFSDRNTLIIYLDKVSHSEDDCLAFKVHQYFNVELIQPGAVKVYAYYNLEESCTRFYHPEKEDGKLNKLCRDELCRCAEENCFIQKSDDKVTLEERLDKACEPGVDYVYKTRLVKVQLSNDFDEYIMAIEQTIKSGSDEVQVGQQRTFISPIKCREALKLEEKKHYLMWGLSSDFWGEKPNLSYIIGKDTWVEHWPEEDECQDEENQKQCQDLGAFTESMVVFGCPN
# [2] = target: T1, human complement protein C3; remark: listed apart in the source
# [3] = target: T1, human complement protein C3; remark: listed apart in the source
# [4] = target: T1, human complement protein C3; remark: listed apart in the source
binder,measurement,setting,value
"Ac-WWRCVWQDWGAHRCT-NH2 (disulfide 4-14; SMILES CC(=O)N[C@@H](Cc1c[nH]c2ccccc12)C(=O)N[C@@H](Cc1c[nH]c2ccccc12)C(=O)N[C@@H](CCCNC(=N)N)C(=O)N[C@H]1CSSC[C@@H](C(=O)N[C@H](C(N)=O)[C@@H](C)O)NC(=O)[C@H](CCCNC(=N)N)NC(=O)[C@H](Cc2c[nH]cn2)NC(=O)[C@H](C)NC(=O)CNC(=O)[C@H](Cc2c[nH]c3ccccc23)NC(=O)[C@H](CC(=O)O)NC(=O)[C@H](CCC(N)=O)NC(=O)[C@H](Cc2c[nH]c3ccccc23)NC(=O)[C@H](C(C)C)NC1=O) [Peptide V, Ac-WW-RCVWQDWGAHRCT-NH2]",IC50 (assay not named in Table 7; preliminary C3b ELISA by paragraph 235),[1],460000 nM
"Ac-SSICVWQDWGAHRCT-NH2 (disulfide 4-14; SMILES CC[C@H](C)[C@H](NC(=O)[C@H](CO)NC(=O)[C@H](CO)NC(C)=O)C(=O)N[C@H]1CSSC[C@@H](C(=O)N[C@H](C(N)=O)[C@@H](C)O)NC(=O)[C@H](CCCNC(=N)N)NC(=O)[C@H](Cc2c[nH]cn2)NC(=O)[C@H](C)NC(=O)CNC(=O)[C@H](Cc2c[nH]c3ccccc23)NC(=O)[C@H](CC(=O)O)NC(=O)[C@H](CCC(N)=O)NC(=O)[C@H](Cc2c[nH]c3ccccc23)NC(=O)[C@H](C(C)C)NC1=O) [Peptide IV, Ac-SS-ICVWQDWGAHRCT-NH2]",IC50 (assay not named in Table 7; preliminary C3b ELISA by paragraph 235),[1],330000 nM
"Ac-RCV[Trp(1-Me)]QDWGAHRCT-NH2 (disulfide 2-12; SMILES CC(=O)N[C@@H](CCCNC(=N)N)C(=O)N[C@H]1CSSC[C@@H](C(=O)N[C@H](C(N)=O)[C@@H](C)O)NC(=O)[C@H](CCCNC(=N)N)NC(=O)[C@H](Cc2c[nH]cn2)NC(=O)[C@H](C)NC(=O)CNC(=O)[C@H](Cc2c[nH]c3ccccc23)NC(=O)[C@H](CC(=O)O)NC(=O)[C@H](CCC(N)=O)NC(=O)[C@H](Cc2cn(C)c3ccccc23)NC(=O)[C@H](C(C)C)NC1=O) [Peptide III, Ac-RCVme…-NH2]",C3b ELISA IC50,[2],1420 nM
same,C5b-9 ELISA IC50,[2],1070 nM
same,Hemolytic assay IC50,[2],2250 nM
same,IC50 (assay not named in Table 7; preliminary C3b ELISA by paragraph 235),[1],300000 nM
same,C3b ELISA IC50,[3],1400 nM and 500 nM
same,C5b-9 ELISA IC50,[3],1100 nM and 600 nM
same,"RPE cell assay medium C5b-9 ELISA, % of positive control (peptide at 1 µM)",[4],50 % of positive control
same,"RPE cell-based assay, confocal imaging of deposit-associated C5b-9, % of positive control (peptide at 1 µM)",[4],20 % of positive control
"Ac-SSRCV[Trp(1-Me)]QDWGAHRCT-NH2 (disulfide 4-14; SMILES CC(=O)N[C@@H](CO)C(=O)N[C@@H](CO)C(=O)N[C@@H](CCCNC(=N)N)C(=O)N[C@H]1CSSC[C@@H](C(=O)N[C@H](C(N)=O)[C@@H](C)O)NC(=O)[C@H](CCCNC(=N)N)NC(=O)[C@H](Cc2c[nH]cn2)NC(=O)[C@H](C)NC(=O)CNC(=O)[C@H](Cc2c[nH]c3ccccc23)NC(=O)[C@H](CC(=O)O)NC(=O)[C@H](CCC(N)=O)NC(=O)[C@H](Cc2cn(C)c3ccccc23)NC(=O)[C@H](C(C)C)NC1=O) [Peptide VIII, Ac-SS-RCVme…-NH2]",IC50 (assay not named in Table 7; preliminary C3b ELISA by paragraph 235),[1],420000 nM
"Ac-RSRCV[Trp(1-Me)]QDWGAHRCT-NH2 (disulfide 4-14; SMILES CC(=O)N[C@@H](CCCNC(=N)N)C(=O)N[C@@H](CO)C(=O)N[C@@H](CCCNC(=N)N)C(=O)N[C@H]1CSSC[C@@H](C(=O)N[C@H](C(N)=O)[C@@H](C)O)NC(=O)[C@H](CCCNC(=N)N)NC(=O)[C@H](Cc2c[nH]cn2)NC(=O)[C@H](C)NC(=O)CNC(=O)[C@H](Cc2c[nH]c3ccccc23)NC(=O)[C@H](CC(=O)O)NC(=O)[C@H](CCC(N)=O)NC(=O)[C@H](Cc2cn(C)c3ccccc23)NC(=O)[C@H](C(C)C)NC1=O) [Peptide VII, Ac-RS-RCVme…-NH2]",IC50 (assay not named in Table 7; preliminary C3b ELISA by paragraph 235),[1],470000 nM
"RSICVXQDWGAHRCT (N-terminal acetyl; C-terminal amide; disulfide bridge Cys2-Cys12; meW (Trp methylated at the indole amide position) at position 4 (filing's numbering from -1; 6th residue of the chain)) [Peptide VI, Ac-RS-ICVme…-NH2]",C3b ELISA IC50,[2],1740 nM
same,C5b-9 ELISA IC50,[2],1130 nM
same,Hemolytic assay IC50,[2],2230 nM
same,IC50 (assay not named in Table 7; preliminary C3b ELISA by paragraph 235),[1],620000 nM
same,C3b ELISA IC50,[3],1700 nM and 600 nM
same,C5b-9 ELISA IC50,[3],1100 nM and 600 nM
same,"RPE cell assay medium C5b-9 ELISA, % of positive control (peptide at 1 µM)",[4],44.6 % of positive control
same,"RPE cell-based assay, confocal imaging of deposit-associated C5b-9, % of positive control (peptide at 1 µM)",[4],14.8 % of positive control
"Ac-[Trp(1-Me)]CVWQDWGAHRCT-NH2 (disulfide 2-12) [Peptide II, Ac-me…-NH2]",IC50 (assay not named in Table 7; preliminary C3b ELISA by paragraph 235),[1],240000 nM
"Ac-RCVWQDWGAHRCT-NH2 (disulfide 2-12; SMILES CC(=O)N[C@@H](CCCNC(=N)N)C(=O)N[C@H]1CSSC[C@@H](C(=O)N[C@H](C(N)=O)[C@@H](C)O)NC(=O)[C@H](CCCNC(=N)N)NC(=O)[C@H](Cc2c[nH]cn2)NC(=O)[C@H](C)NC(=O)CNC(=O)[C@H](Cc2c[nH]c3ccccc23)NC(=O)[C@H](CC(=O)O)NC(=O)[C@H](CCC(N)=O)NC(=O)[C@H](Cc2c[nH]c3ccccc23)NC(=O)[C@H](C(C)C)NC1=O) [Peptide I, Ac-RCVWQDWGAHRCT-NH2]",C3b ELISA IC50,[2],2580 nM
same,C5b-9 ELISA IC50,[2],2020 nM
same,Hemolytic assay IC50,[2],3330 nM
same,IC50 (assay not named in Table 7; preliminary C3b ELISA by paragraph 235),[1],250000 nM
same,C3b ELISA IC50,[3],2600 nM and 1100 nM
same,C5b-9 ELISA IC50,[3],2000 nM and 1000 nM
same,Lysis IC50,[3],3300 nM and 1200 nM
same,"RPE cell assay medium C5b-9 ELISA, % of positive control (peptide at 1 µM)",[4],61.4 % of positive control
same,"RPE cell-based assay, confocal imaging of deposit-associated C5b-9, % of positive control (peptide at 1 µM)",[4],55.3 % of positive control

# — patent US20150329594A1 (University of California, published 2015)
